# Biological target: full-length H7 HA trimer (influenza A virus (H7))
# Experiment: BLI
substance,measurement,value
CT149 Fab,Kd,3.7 nM
same,koff,0.0031 s⁻¹
same,kon,360000 M⁻¹ s⁻¹

# — publication PMC6391921
